Measured values published in publication PMC3647168 (Scientific Reports, 2013).

Biological target: T1, His-DDA3 (UniProt Q6PGN9 1-363)
T1 sequence (looked up): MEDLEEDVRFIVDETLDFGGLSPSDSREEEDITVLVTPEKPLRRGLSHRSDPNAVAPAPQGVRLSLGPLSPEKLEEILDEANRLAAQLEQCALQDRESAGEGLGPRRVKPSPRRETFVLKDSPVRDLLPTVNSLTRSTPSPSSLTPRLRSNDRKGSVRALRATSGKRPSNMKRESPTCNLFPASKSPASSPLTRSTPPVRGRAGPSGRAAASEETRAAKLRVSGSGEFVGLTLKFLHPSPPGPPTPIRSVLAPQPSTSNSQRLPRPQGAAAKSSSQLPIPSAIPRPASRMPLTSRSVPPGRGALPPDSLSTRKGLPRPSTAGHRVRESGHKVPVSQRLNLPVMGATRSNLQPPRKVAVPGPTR
Assay: pull-down

- binding result: binds
B1: GST-EB1 (natural protein, UniProt Q15691 1-268, looked up)
chain: MAVNVYSTSVTSDNLSRHDMLAWINESLQLNLTKIEQLCSGAAYCQFMDMLFPGSIALKKVKFQAKLEHEYIQNFKILQAGFKRMGVDKIIPVDKLVKGKFQDNFEFVQWFKKFFDANYDGKDYDPVAARQGQETAVAPSLVAPALNKPKKPLTSSSAAPQRPISTQRTAAAPKAGPGVVRKNPGVGNGDDEAAELMQQVNVLKLTVEDLEKERDFYFGKLRNIELICQENEGENDPVLQRIVDILYATDEGFVIPDEGGPQEEQEEY
